Assay results: patent US20070293425A1 (JULIUS MAXIMILIANS UNIVERSITAT WURZBURG, published 2007)

B1: BMP-2 wild type (ligand)
chain: QAKHKQRKRLKSSCKRHPLYVDFSDVGWNDWIVAPPGYHAFYCHGECPFPLADHLNSTNHAIVQTLVNSVNSKIPKACCVPTELSAISMLYLDENEKVVLKNYQDMVVEGCGCR
notes: also called hBMP-2; human BMP-2
B2: BMP-2 L51P (ligand)
chain: QAKHKQRKRLKSSCKRHPLYVDFSDVGWNDWIVAPPGYHAFYCHGECPFPPADHLNSTNHAIVQTLVNSVNSKIPKACCVPTELSAISMLYLDENEKVVLKNYQDMVVEGCGCR
notes: also called L51P mutein; BMP-2 proline mutein L51P
B3: BMP-2 D53P (ligand)
chain: QAKHKQRKRLKSSCKRHPLYVDFSDVGWNDWIVAPPGYHAFYCHGECPFPLAPHLNSTNHAIVQTLVNSVNSKIPKACCVPTELSAISMLYLDENEKVVLKNYQDMVVEGCGCR
notes: also called BMP-2 proline mutein D53P
B4: BMP-2 D53A (ligand)
chain: QAKHKQRKRLKSSCKRHPLYVDFSDVGWNDWIVAPPGYHAFYCHGECPFPLAAHLNSTNHAIVQTLVNSVNSKIPKACCVPTELSAISMLYLDENEKVVLKNYQDMVVEGCGCR
B5: BMP-2 S69R (ligand)
chain: QAKHKQRKRLKSSCKRHPLYVDFSDVGWNDWIVAPPGYHAFYCHGECPFPLADHLNSTNHAIVQTLVNRVNSKIPKACCVPTELSAISMLYLDENEKVVLKNYQDMVVEGCGCR
notes: also called S69R mutein
B6: BMP-2 Y103A (ligand)
chain: QAKHKQRKRLKSSCKRHPLYVDFSDVGWNDWIVAPPGYHAFYCHGECPFPLADHLNSTNHAIVQTLVNSVNSKIPKACCVPTELSAISMLYLDENEKVVLKNAQDMVVEGCGCR
B7: BMP-2 W28F (ligand)
chain: QAKHKQRKRLKSSCKRHPLYVDFSDVGFNDWIVAPPGYHAFYCHGECPFPLADHLNSTNHAIVQTLVNSVNSKIPKACCVPTELSAISMLYLDENEKVVLKNYQDMVVEGCGCR
notes: also called W28F mutein

Key:
Chordin CR1 [1] = target: T1, Chordin CR1; experiment: BIAcore, immobilised Chordin CR1, BMP-2 as analyte
T1 construct: domain: CR1; also called Chordin domain CR1
Method: (§1) Proteins were biotinylated and immobilised to streptavidin-coated sensor chip CM5 (Kirsch et al., 2000a). The extracellular domain of BRIA, BRIB and ARII were prepared as described (Kirsch et al., 2000a). […] Interaction with analyte was measured on a BIAcore 2000 system (Kirsch et al., 2000a). Evaluation of sensorgrams (Biaevaluation software 2.0) yielded kinetic constants for complex formation (kₒₙ) and dissociation (koff). […] Apparent dissociation constants KD were either calculated as KD=koff/kₒₙ or by evaluating dose dependency of equilibrium binding.

[2] = target: T2, Activin receptor II ectodomain; experiment: BIAcore, immobilised ARII ectodomain, BMP-2 as analyte
T2 construct: extracellular domain; Biotinylated, immobilised on a streptavidin chip; also called ARII; type II receptor ARII
Method: as §1

[3] = target: T3, BRIBEC, extracellular domain of BMPR-IB; experiment: BIAcore, immobilised BRIB ectodomain, BMP-2 as analyte
T3 construct: extracellular domain; Biotinylated, immobilised on a streptavidin chip; also called BRIB receptor
Method: as §1

Gremlin [4] = target: T4, Gremlin; experiment: BIAcore, immobilised Gremlin, BMP-2 as analyte
T4 construct: Bought (R&D systems)
Method: as §1

Chordin CR3 [5] = target: T5, Chordin CR3; experiment: BIAcore, immobilised Chordin CR3, BMP-2 as analyte
T5 construct: domain: CR3; also called Chordin domain CR3
Method: as §1

[6] = target: BRIA receptor on C2C12 and ATDC5 cells; experiment: cell-based or functional assay
[7] = target: T2, Activin receptor II ectodomain; experiment: BIAcore, immobilised ARII ectodomain, mutein as analyte, against BMP-2 wild type
Method: as §1

Chordin CR3 [8] = target: T5, Chordin CR3; experiment: BIAcore, immobilised Chordin CR3, mutein as analyte, against BMP-2 wild type
Method: as §1

Chordin CR1 [9] = target: T1, Chordin CR1; experiment: BIAcore, immobilised Chordin CR1, mutein as analyte, against BMP-2 wild type
Method: as §1

Noggin/Fc [10] = target: T6, Noggin/Fc; experiment: BIAcore, immobilised Noggin, mutein as analyte, against BMP-2 wild type
T6 construct: Bought (R&D systems); construct not described; also called Noggin-Fc fusion protein
T6 sequence (Q13253 whole entry, species assumed, looked up): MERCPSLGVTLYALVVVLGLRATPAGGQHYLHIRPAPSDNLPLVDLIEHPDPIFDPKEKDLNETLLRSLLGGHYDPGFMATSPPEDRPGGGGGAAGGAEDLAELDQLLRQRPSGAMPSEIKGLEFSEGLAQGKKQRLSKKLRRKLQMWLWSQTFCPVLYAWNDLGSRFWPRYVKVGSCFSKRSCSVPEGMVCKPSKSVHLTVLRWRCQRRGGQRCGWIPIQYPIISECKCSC
Method: as §1

Gremlin [11] = target: T4, Gremlin; experiment: BIAcore, immobilised Gremlin, mutein as analyte, against BMP-2 wild type
Method: as §1

Noggin/Fc [12] = target: T6, Noggin/Fc; experiment: BIAcore, immobilised Noggin
Method: as §1

[13] = target: T3, BRIBEC, extracellular domain of BMPR-IB; experiment: BIAcore, immobilised BRIB ectodomain, mutein as analyte, against BMP-2 wild type
Method: as §1

T3 sequence (P36898 14-126): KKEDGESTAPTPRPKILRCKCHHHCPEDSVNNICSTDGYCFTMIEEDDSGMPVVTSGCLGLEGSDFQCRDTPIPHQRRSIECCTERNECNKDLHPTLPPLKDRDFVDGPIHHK
T2 sequence (P27037 20-135): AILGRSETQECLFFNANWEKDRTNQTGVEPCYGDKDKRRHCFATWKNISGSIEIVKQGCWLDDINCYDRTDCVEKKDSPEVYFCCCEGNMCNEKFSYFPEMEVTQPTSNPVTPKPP
T4 sequence (O70326 25-184): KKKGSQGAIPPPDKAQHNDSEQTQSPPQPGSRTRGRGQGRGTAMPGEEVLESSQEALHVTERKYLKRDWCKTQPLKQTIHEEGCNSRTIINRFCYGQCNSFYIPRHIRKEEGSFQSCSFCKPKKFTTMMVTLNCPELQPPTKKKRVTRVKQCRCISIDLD

ED50 of induction of alkaline phosphatase (ALP) activity in ATDC5 cells [6] [nM] | ED50 of induction of alkaline phosphatase (ALP) activity in C2C12 cells [6] [nM] | KD(Mut)/KD(WT) [7] [ratio] | KD(Mut)/KD(WT) [13] [ratio] | also measured | Binder
8 | 25 | – | – | Kd (Chordin CR1 [1]): 61 nM; Kd [2]: 14 nM; Kd [3]: 3.6 nM; Kd (Gremlin [4]): 22 nM; Kd (Chordin CR3 [5]): 67 nM | B1
> 1500 | > 1600 | 2.3 | – | KD(mut)/KD(WT) (Chordin CR3 [8]): 0.9 ratio; KD(mut)/KD(WT) (Chordin CR1 [9]): 0.85 ratio; KD(mut)/KD(WT) (Noggin/Fc [10]): 0.27 ratio; KD(mut)/KD(WT) (Gremlin [11]): 0.55 ratio; Kd (Noggin/Fc [12]): 0.5 nM | B2
140 | 330 | 1.2 | 10 | KD(mut)/KD(WT) (Chordin CR3 [8]): 1.1 ratio; KD(mut)/KD(WT) (Chordin CR1 [9]): 0.7 ratio; KD(mut)/KD(WT) (Noggin/Fc [10]): 1.3 ratio; KD(mut)/KD(WT) (Gremlin [11]): 0.7 ratio; Kd (Noggin/Fc [12]): 2.5 nM | B3
– | – | 1.2 | 0.34 | – | B4
– | – | 0.9 | – | – | B5
– | – | 1.4 | 3.2 | – | B6
– | – | 1.2 | 1.7 | – | B7
